Tests used:
[1] = target: human Fn14 on cells (MEF Fn14-V5, U87-Luc/GFP, 231-Luc) (human); assay: human U87 glioma cells treated with fluorescent particles (FIG. 3C; legend says flow cytometry)
[2] = target: Fn14 extracellular domain (recombinant, Cell Sciences); assay: SPR (Biacore), ratio of KD against free ITEM4
[3] = target: human Fn14 on cells (MEF Fn14-V5, U87-Luc/GFP, 231-Luc) (human); assay: flow cytometry, MEF Fn14-V5 cells expressing human Fn14
[4] = target: human Fn14 on cells (MEF Fn14-V5, U87-Luc/GFP, 231-Luc) (human); assay: flow cytometry, human U87-Luc/GFP GBM cells
[5] = target: Fn14 extracellular domain (recombinant, Cell Sciences); assay: SPR (Biacore 3000), Fn14 extracellular domain on CM5 chip, equilibrium fit, per nanoparticle
[6] = target: Fn14 extracellular domain (recombinant, Cell Sciences); assay: SPR (Biacore 3000), Fn14 extracellular domain on CM5 chip, equilibrium fit
[7] = target: Fn14 extracellular domain (recombinant, Cell Sciences); assay: SPR (Biacore), Fn14 extracellular domain on chip, binding isotherm of RUeq, per nanoparticle
[8] = target: human Fn14 on cells (MEF Fn14-V5, U87-Luc/GFP, 231-Luc) (human); assay: flow cytometry, 231-Luc cells
[9] = target: Fn14 extracellular domain (recombinant, Cell Sciences); assay: SPR (Biacore), Fn14 chip, nanoparticles first incubated with mouse blood serum
[10] = target: human Fn14 on cells (MEF Fn14-V5, U87-Luc/GFP, 231-Luc) (human); assay: cell-based or functional assay

Question: Which fold increase in binding to glioma cells against non-targeted BPN [1] does the source give for “BPN conjugated with ITEM4 at high density” here?
Answer: 4.5 fold

Question: What does the source list for “CNP-ITEM4 (high): 100 nm PEG-coated polystyrene nanoparticles decorated with a high density of ITEM4”?
Answer: fold higher binding affinity than ITEM4 alone [2]: 65 fold; fold cellular uptake against CNP [3]: 2.5 fold; fold cellular uptake efficiency against CNP alone [4]: 3.5 fold; Kd [5]: 0.024 nM

Question: With “CNP-ITEM4 (low): 100 nm PEG-coated polystyrene nanoparticles decorated with a low density of ITEM4” as the substance, how does the fold higher binding affinity than ITEM4 alone [2] read?
Answer: 15 fold

Question: And the fold cellular uptake efficiency against CNP alone [4]?
Answer: 1.25 fold

Question: And the Kd [5]?
Answer: 0.106 nM

Question: Which Kd [6] does the source give for “ITEM4 monoclonal antibody (Fn14-specific monoclonal antibody)” here?
Answer: 1.62 nM

Question: With PLGA-PEG1%-ITEM41% nanoparticles as the substance, how does the Kd [7] read?
Answer: 3.2 nM

Question: PLGA-PEG5%-ITEM41% nanoparticles was tested. Which Kd [7] did it give?
Answer: 2.4 nM

Question: With PLGA-PEG10%-ITEM40.1% nanoparticles as the substance, how does the Kd [7] read?
Answer: 26.5 nM

Question: For “PLGA-PEG10%-ITEM41% nanoparticles (optimized DART nanoparticles)”, which fold cellular association efficiency against PLGA-PEG [8] is on record?
Answer: 2.5 fold

Question: And the Kd [9]?
Answer: 6.1 nM

Question: What about the Kd [7] of the same substance?
Answer: 1.9 nM

Question: What about the IC50 (as paclitaxel), viability of 231-Luc cells by MTS assay, 2 h exposure then 24 h in fresh medium (in vitro clearance study), paclitaxel-loaded particles [10] of the same substance?
Answer: 0.13 µM

Question: How did the Kd [7] turn out when PLGA-PEG10%-ITEM410% nanoparticles was run?
Answer: 2.6 nM

Question: “thiol-modified ITEM4 (ITEM4-SH) (antibody)” was tested. Which Kd [6] did it give?
Answer: 1.57 nM
